Test results reported in patent US20240360227A1.
Numbering of substitutions follows the chain as printed.

B1: VRDN-02064 (antibody, V domains shown)
VH: QVQLQESGPGLVKPSETLSLTCTVSGYSITGGYLWNWIRQPPGKGLEWIGYISYDGTNNYKPSLKDRVTISRDTSKNQFSLKLSSVTAADTAVYYCARHGRVFFDYWGQGTLVTVSS
VL: DIVMTQSPLSLPVTPGEPASISCRSSQSIVHSNGNTYLQWYLQKPGQSPQLLIYKVSNRLYGVPDRFSGSGSGTDFTLKISRVEAEDVGVYYCFHGSHVPWTFGQGTKVEIK
B2: VRDN-02065 (antibody, V domains shown)
VH: B1 VH with S53H, H99Y
VL: B1 VL with H95Q, P100H
B3: VRDN-02066 (antibody, V domains shown)
VH: B1 VH with D55H, H99Y
VL: B1 VL with H95Q, P100H
B4: VRDN-02067 (antibody, V domains shown)
VH: B1 VH
VL: B1 VL with H95Q, P100H
B5: VRDN-02068 (antibody, V domains shown)
VH: B1 VH with S53H, H99Y
VL: B1 VL with H95Q, W101H
B6: VRDN-02069 (antibody, V domains shown)
VH: B1 VH with D55H, H99Y
VL: B1 VL with H95Q, W101H
B7: VRDN-02070 (antibody, V domains shown)
VH: B1 VH
VL: B1 VL with H95Q, W101H
B8: VRDN-02071 (antibody, V domains shown)
VH: B1 VH with S53H
VL: B1 VL with S26H
B9: VRDN-02072 (antibody, V domains shown)
VH: B1 VH with S53H
VL: B1 VL with S26H, H95Q, P100H
B10: VRDN-02007 (antibody, V domains shown)
VH: B1 VH with G32H, H99Y
VL: B1 VL with H95Q
B11: VRDN-02073 (antibody, V domains shown)
VH: B1 VH with S53H
VL: B1 VL with S26H, H95Q, W101H
B12: VRDN-02074 (antibody, V domains shown)
VH: B1 VH with D55H
VL: B1 VL with S26H
B13: VRDN-02075 (antibody, V domains shown)
VH: B1 VH with D55H
VL: B1 VL with S26H, H95Q, P100H
B14: VRDN-02076 (antibody, V domains shown)
VH: B1 VH with D55H
VL: B1 VL with S26H, H95Q, W101H
B15: VRDN-02008 (antibody, V domains shown)
VH: B1 VH with Y33H, H99Y
VL: B1 VL with H95Q
B16: VRDN-02009 (antibody, V domains shown)
VH: B1 VH with L34H, H99Y
VL: B1 VL with H95Q
B17: VRDN-02010 (antibody, V domains shown)
VH: B1 VH with W35H, H99Y
VL: B1 VL with H95Q
B18: VRDN-02011 (antibody, V domains shown)
VH: B1 VH with N36H, H99Y
VL: B1 VL with H95Q
B19: VRDN-02012 (antibody, V domains shown)
VH: B1 VH with Y51H, H99Y
VL: B1 VL with H95Q
B20: VRDN-02013 (antibody, V domains shown)
VH: B1 VH with I52H, H99Y
VL: B1 VL with H95Q
B21: VRDN-02014 (antibody, V domains shown)
VH: B1 VH with S53H, H99Y
VL: B1 VL with H95Q
B22: VRDN-02015 (antibody, V domains shown)
VH: B1 VH with Y54H, H99Y
VL: B1 VL with H95Q

These binders were tested against Recombinant human his-tagged IGF R extracellular domain protein (human) (UniProt P08069) (assay: SPR, Ab captured via anti-huIgG Fc, dissociation at pH 6).
A Kd of 0.145 nM, a koff of 2.27e-05 s⁻¹ and a kon of 157000 M⁻¹ s⁻¹ were found for B1 in this work. A Kd of 0.232 nM, a koff of 4.83e-05 s⁻¹ and a kon of 208000 M⁻¹ s⁻¹ were found for B2 in this work. A Kd of 0.296 nM, a koff of 5.14e-05 s⁻¹ and a kon of 174000 M⁻¹ s⁻¹ were found for B3 in this work. A Kd of 0.31 nM, a koff of 5.44e-05 s⁻¹ and a kon of 175000 M⁻¹ s⁻¹ were found for B4 in this work. A Kd of 0.376 nM, a koff of 6.53e-05 s⁻¹ and a kon of 174000 M⁻¹ s⁻¹ were found for B5 in this work. A Kd of 0.325 nM, a koff of 5.59e-05 s⁻¹ and a kon of 172000 M⁻¹ s⁻¹ were found for B6 in this work. A Kd of 0.335 nM, a koff of 5.29e-05 s⁻¹ and a kon of 158000 M⁻¹ s⁻¹ were found for B7 in this work. A Kd of 0.352 nM, a koff of 6.64e-05 s⁻¹ and a kon of 189000 M⁻¹ s⁻¹ were found for B8 in this work. A Kd of 0.269 nM, a koff of 5.3e-05 s⁻¹ and a kon of 197000 M⁻¹ s⁻¹ were found for B9 in this work. A Kd of 10.2 nM, a koff of 0.00188 s⁻¹ and a kon of 184000 M⁻¹ s⁻¹ were found for B10 in this work. A Kd of 0.267 nM, a koff of 4.77e-05 s⁻¹ and a kon of 179000 M⁻¹ s⁻¹ were found for B11 in this work. A Kd of 0.25 nM, a koff of 5.81e-05 s⁻¹ and a kon of 232000 M⁻¹ s⁻¹ were found for B12 in this work. A Kd of 0.188 nM, a koff of 5.52e-05 s⁻¹ and a kon of 294000 M⁻¹ s⁻¹ were found for B13 in this work. A Kd of 0.178 nM, a koff of 6.76e-05 s⁻¹ and a kon of 381000 M⁻¹ s⁻¹ were found for B14 in this work. A Kd of 13.1 nM, a koff of 0.00143 s⁻¹ and a kon of 109000 M⁻¹ s⁻¹ were found for B15 in this work. A Kd of 0.967 nM, a koff of 8.4e-05 s⁻¹ and a kon of 86900 M⁻¹ s⁻¹ were found for B16 in this work. A Kd of 7.61 nM, a koff of 0.00074 s⁻¹ and a kon of 97200 M⁻¹ s⁻¹ were found for B17 in this work. A Kd of 0.836 nM, a koff of 7.81e-05 s⁻¹ and a kon of 93400 M⁻¹ s⁻¹ were found for B18 in this work. A Kd of 1.01 nM, a koff of 0.000103 s⁻¹ and a kon of 102000 M⁻¹ s⁻¹ were found for B19 in this work. A Kd of 1.17 nM, a koff of 0.000109 s⁻¹ and a kon of 93200 M⁻¹ s⁻¹ were found for B20 in this work. A Kd of 1.11 nM, a koff of 0.000153 s⁻¹ and a kon of 138000 M⁻¹ s⁻¹ were found for B21 in this work. A Kd of 0.961 nM, a koff of 8.79e-05 s⁻¹ and a kon of 91400 M⁻¹ s⁻¹ were found for B22 in this work.

These binders were tested against Recombinant human his-tagged IGF R extracellular domain protein (human) (UniProt P08069) (assay: SPR, Ab captured via anti-huIgG Fc, pH 7.4).
A Kd of 0.235 nM, a koff of 2.48e-05 s⁻¹ and a kon of 106000 M⁻¹ s⁻¹ were found for B1 in this work. A Kd of 0.22 nM, a koff of 2.54e-05 s⁻¹ and a kon of 116000 M⁻¹ s⁻¹ were found for B2 in this work. A Kd of 0.278 nM, a koff of 3.12e-05 s⁻¹ and a kon of 112000 M⁻¹ s⁻¹ were found for B3 in this work. A Kd of 0.25 nM, a koff of 2.75e-05 s⁻¹ and a kon of 110000 M⁻¹ s⁻¹ were found for B4 in this work. A Kd of 0.249 nM, a koff of 2.87e-05 s⁻¹ and a kon of 115000 M⁻¹ s⁻¹ were found for B5 in this work. A Kd of 0.137 nM, a koff of 1.52e-05 s⁻¹ and a kon of 111000 M⁻¹ s⁻¹ were found for B6 in this work. A Kd of 0.322 nM, a koff of 3.38e-05 s⁻¹ and a kon of 105000 M⁻¹ s⁻¹ were found for B7 in this work. A Kd of 0.103 nM, a koff of 1.09e-05 s⁻¹ and a kon of 105000 M⁻¹ s⁻¹ were found for B8 in this work. A Kd of 0.281 nM, a koff of 3.57e-05 s⁻¹ and a kon of 127000 M⁻¹ s⁻¹ were found for B9 in this work. A Kd of 12.8 nM, a koff of 0.000743 s⁻¹ and a kon of 58000 M⁻¹ s⁻¹ were found for B10 in this work. A Kd of 0.261 nM, a koff of 3.13e-05 s⁻¹ and a kon of 120000 M⁻¹ s⁻¹ were found for B11 in this work. A Kd of 0.301 nM, a koff of 3.98e-05 s⁻¹ and a kon of 132000 M⁻¹ s⁻¹ were found for B12 in this work. A Kd of 0.237 nM, a koff of 2.76e-05 s⁻¹ and a kon of 116000 M⁻¹ s⁻¹ were found for B13 in this work. A Kd of 0.21 nM, a koff of 2.46e-05 s⁻¹ and a kon of 117000 M⁻¹ s⁻¹ were found for B14 in this work. A Kd of 16.6 nM, a koff of 0.0206 s⁻¹ and a kon of 1.24e+06 M⁻¹ s⁻¹ were found for B15 in this work. A Kd of 0.442 nM, a koff of 3.98e-05 s⁻¹ and a kon of 90000 M⁻¹ s⁻¹ were found for B16 in this work. A Kd of 6.95 nM, a koff of 0.00311 s⁻¹ and a kon of 447000 M⁻¹ s⁻¹ were found for B17 in this work. A Kd of 0.432 nM, a koff of 4.55e-05 s⁻¹ and a kon of 105000 M⁻¹ s⁻¹ were found for B18 in this work. A Kd of 0.589 nM, a koff of 5.41e-05 s⁻¹ and a kon of 91800 M⁻¹ s⁻¹ were found for B19 in this work. A Kd of 0.674 nM, a koff of 5.45e-05 s⁻¹ and a kon of 80800 M⁻¹ s⁻¹ were found for B20 in this work. A Kd of 0.697 nM, a koff of 6.19e-05 s⁻¹ and a kon of 88700 M⁻¹ s⁻¹ were found for B21 in this work. A Kd of 0.51 nM, a koff of 4.57e-05 s⁻¹ and a kon of 89500 M⁻¹ s⁻¹ were found for B22 in this work.
